# Patent US8541373B2, “BChE albumin fusions for the treatment of cocaine abuse” (priority 2009, dated 2013)
# Several values for one entry are separate records, joined by “and”; a condition that tells them apart may be missing. Equal entries are not always repeated.
# Test: AlbuBChE serum pharmacokinetics after single IM dose (ELISA)
# Procedure: The study included a total of 11 naïve, adult male cynomolgus monkeys divided into four dose groups: • a control group of two cynomologus monkeys that only received a single IV dose of cocaine; • three dose groups that were treated with a single IM dose of AlbuBChE at 0.2, 1 or 5 mg/kg. Three naïve, adult male cynomolgus monkeys were used in each dose group. Following AlbuBChE treatment, a 1 mg/kg IV dose of cocaine was administered at 2, 48, 96, 120, and 240 hours after AlbuBChE dose administration.
# A single intramuscular (IM) administration of AlbuBChE was administered on study day 1 and blood was collected at the time points outlined in Table 2. Approximately 0.5 mL of whole blood was collected from the femoral vein into serum separate tubes (SST).
# Blocking is done with 2% Casein in 1×PBS, 200 μL/well, 2 hours at room temperature. After washing, 100 μL of diluted serum samples are added to the plates along with standards. Standards are generated through 3.64 fold, serial dilution of AlbuBChE from 2000 to 3.1 ng/mL. Serum samples and standards are maintained at 10% serum by dilution with buffer containing pooled cynomolgus monkey serum. A wash step precedes detection with 100 μL of anti-HSA mAb-6502-HRP at 0.04 μg/mL for 1 hour. Wells are washed again, prior to developing with 100 μl of TMB substrate. After 15 minutes, the reaction is terminated with 100 μL/well of 1N H2SO4 and read on SpectraMax plate reader at 450/570 nm. Values for unknown serum samples are calculated by interpolation of standard curve generated by 4-parameter fit of AlbuBChE standards. The limit of quantitation in cynomolgus serum was 21.1 ng/mL.
# AlbuBChE pharmacokinetic parameter values were determined using serum concentration-time profiles for individual animals. The computer software WinNonlin Professional (Version 4.0.1 Pharsight Corporation, USA) was used. Specifically the model for non-compartmental analysis with extravascular input was applied. If there were fewer than 3 data points in the terminal phase of the serum concentration curve, a terminal phase half-life and PK parameters derived from the half-life were not calculated for that profile. Parameters analyzed include tmax, Cmax, t1/2, AUC(0-t) and AUC(0-∞) were calculated.
substance,measurement,setting,value
AlbuBChE,"AUC % Extrap, individual animals",0.2 mg/kg IM,19.3% and 18.8% and 14.1%
same,"AUC(0-t), individual animals",0.2 mg/kg IM,2746 ng·h/mL and 7878 ng·h/mL and 8479 ng·h/mL
same,"AUC(0-∞), individual animals",0.2 mg/kg IM,3404 ng·h/mL and 9704 ng·h/mL and 9867 ng·h/mL
same,"Cmax, individual animals",0.2 mg/kg IM,176 ng/mL and 279 ng/mL and 281 ng/mL
same,Dose Normalized AUC(0-∞),0.2 mg/kg IM,38292
same,Dose Normalized Cmax,0.2 mg/kg IM,1226
same,Mean AUC % Extrap,0.2 mg/kg IM,17.4%
same,Mean AUC(0-t),0.2 mg/kg IM,6368 ng·h/mL
same,Mean AUC(0-∞),0.2 mg/kg IM,7658 ng·h/mL
same,Mean Cmax,0.2 mg/kg IM,245 ng/mL
same,Mean t½,0.2 mg/kg IM,27.2 h
same,"Tmax, individual animals",0.2 mg/kg IM,3 h
same,"t½, individual animals",0.2 mg/kg IM,15.3 h and 42.1 h and 24.4 h
same,"AlbuBChE serum concentration, individual animals","0.2 mg/kg IM, 1 hr post dose",37.1 ng/mL and 235.4 ng/mL and 111.0 ng/mL
same,Mean AlbuBChE serum concentration,"0.2 mg/kg IM, 1 hr post dose",128 ng/mL
same,"AlbuBChE serum concentration, individual animals","0.2 mg/kg IM, 3 hr post dose",176.1 ng/mL and 278.5 ng/mL and 280.7 ng/mL
same,Mean AlbuBChE serum concentration,"0.2 mg/kg IM, 3 hr post dose",245 ng/mL
same,"AlbuBChE serum concentration, individual animals","0.2 mg/kg IM, 6 hr post dose",144.0 ng/mL and 212.1 ng/mL and 272.4 ng/mL
same,Mean AlbuBChE serum concentration,"0.2 mg/kg IM, 6 hr post dose",210 ng/mL
same,"AlbuBChE serum concentration, individual animals","0.2 mg/kg IM, 12 hr post dose",88.4 ng/mL and 143.1 ng/mL and 197.9 ng/mL
same,Mean AlbuBChE serum concentration,"0.2 mg/kg IM, 12 hr post dose",143 ng/mL
same,"AlbuBChE serum concentration, individual animals","0.2 mg/kg IM, 24 hr post dose",52.3 ng/mL and 95.2 ng/mL and 135.7 ng/mL
same,Mean AlbuBChE serum concentration,"0.2 mg/kg IM, 24 hr post dose",94.4 ng/mL
same,"AlbuBChE serum concentration, individual animals","0.2 mg/kg IM, 36 hr post dose",29.8 ng/mL and 68.3 ng/mL and 87.4 ng/mL
same,Mean AlbuBChE serum concentration,"0.2 mg/kg IM, 36 hr post dose",61.8 ng/mL
same,"AlbuBChE serum concentration, individual animals","0.2 mg/kg IM, 48 hr post dose",<LLOQ and 66.4 ng/mL and 80.7 ng/mL
same,Mean AlbuBChE serum concentration,"0.2 mg/kg IM, 48 hr post dose",73.6 ng/mL
same,"AlbuBChE serum concentration, individual animals","0.2 mg/kg IM, 72 hr post dose",<LLOQ and 44.5 ng/mL and 39.5 ng/mL
same,Mean AlbuBChE serum concentration,"0.2 mg/kg IM, 72 hr post dose",42.0 ng/mL
same,"AlbuBChE serum concentration, individual animals","0.2 mg/kg IM, 96 hr post dose",<LLOQ (2×) and 30.1 ng/mL
same,Mean AlbuBChE serum concentration,"0.2 mg/kg IM, 96 hr post dose",<LLOQ
same,"AlbuBChE serum concentration, individual animals","0.2 mg/kg IM, 128 hr post dose",<LLOQ
same,Mean AlbuBChE serum concentration,"0.2 mg/kg IM, 128 hr post dose",<LLOQ
same,"AlbuBChE serum concentration, individual animals","0.2 mg/kg IM, 144 hr post dose",<LLOQ
same,Mean AlbuBChE serum concentration,"0.2 mg/kg IM, 144 hr post dose",<LLOQ
same,"AlbuBChE serum concentration, individual animals","0.2 mg/kg IM, 168 hr post dose",<LLOQ
same,Mean AlbuBChE serum concentration,"0.2 mg/kg IM, 168 hr post dose",<LLOQ
same,"AlbuBChE serum concentration, individual animals","0.2 mg/kg IM, 216 hr post dose",<LLOQ
same,Mean AlbuBChE serum concentration,"0.2 mg/kg IM, 216 hr post dose",<LLOQ
same,"AlbuBChE serum concentration, individual animals","0.2 mg/kg IM, 264 hr post dose",<LLOQ
same,Mean AlbuBChE serum concentration,"0.2 mg/kg IM, 264 hr post dose",<LLOQ
same,tmax,"0.2 mg/kg IM, group value",3 h
same,"AUC % Extrap, individual animals",1 mg/kg IM,2.54% and 3.67% and 2.90%
same,"AUC(0-t), individual animals",1 mg/kg IM,43128 ng·h/mL and 51298 ng·h/mL and 46185 ng·h/mL
same,"AUC(0-∞), individual animals",1 mg/kg IM,44251 ng·h/mL and 53255 ng·h/mL and 47564 ng·h/mL
same,"Cmax, individual animals",1 mg/kg IM,1666 ng/mL and 1374 ng/mL and 1956 ng/mL
same,"Tmax, individual animals",1 mg/kg IM,3 h
same,"t½, individual animals",1 mg/kg IM,28.4 h and 34.3 h and 30.3 h
same,Dose Normalized AUC(0-∞),1.0 mg/kg IM,48357
same,Dose Normalized Cmax,1.0 mg/kg IM,1665
same,Mean AUC % Extrap,1.0 mg/kg IM,3.04%
same,Mean AUC(0-t),1.0 mg/kg IM,46871 ng·h/mL
same,Mean AUC(0-∞),1.0 mg/kg IM,48357 ng·h/mL
same,Mean Cmax,1.0 mg/kg IM,1665 ng/mL
same,Mean t½,1.0 mg/kg IM,31 h
same,"AlbuBChE serum concentration, individual animals","1.0 mg/kg IM, 1 hr post dose",1058.9 ng/mL and 462.4 ng/mL and 1598.6 ng/mL
same,Mean AlbuBChE serum concentration,"1.0 mg/kg IM, 1 hr post dose",1040 ng/mL
same,"AlbuBChE serum concentration, individual animals","1.0 mg/kg IM, 3 hr post dose",1665.5 ng/mL and 1374.0 ng/mL and 1956.0 ng/mL
same,Mean AlbuBChE serum concentration,"1.0 mg/kg IM, 3 hr post dose",1665 ng/mL
same,"AlbuBChE serum concentration, individual animals","1.0 mg/kg IM, 6 hr post dose",1269.3 ng/mL and 1266.3 ng/mL and 1596.1 ng/mL
same,Mean AlbuBChE serum concentration,"1.0 mg/kg IM, 6 hr post dose",1377 ng/mL
same,"AlbuBChE serum concentration, individual animals","1.0 mg/kg IM, 12 hr post dose",884.3 ng/mL and 968.1 ng/mL and 1049.5 ng/mL
same,Mean AlbuBChE serum concentration,"1.0 mg/kg IM, 12 hr post dose",967 ng/mL
